Assay [1] concerns the target heat denatured type II collagen (HDC).
For assay [2], the target named is native helical type II collagen.
In assay [3] the target is monoclonal antibody COL2-3/4m. Kind of assay: inhibition ELISA with COL2-3/4m, HDC on the plate; sample incubated in Tris/CaCl2 without collagenase. (An ELISA detects its analyte on a solid surface through an enzyme-linked reagent.)

Non-standard residues stand in square brackets, D forms with d. No end group written: not given here. Hyp = O=C(O)[C@@H]1C[C@@H](O)CN1

For “chromatographically purified collagenase form III from Clostridium histolyticum (enzyme)”, in assay [1], the [α1(II)-CB11B] by immunoassay (µg/ml) after treatment was found to be 0.84 µg/mL.
Regarding α-chymotrypsin (enzyme), the [CB11B] BY INHIBITION ASSAY (µg/ml) of NC + 500 µg/ml CHYMOTRYPSIN in assay [2] is 0 µg/mL.
In the case of CGKVGPSGA[Hyp]GEDGR[Hyp]GP[Hyp]GPQY [synthetic peptide CB11B], the [α1(II)-CB11B] by immunoassay in assay [3] is 4.44 µg/mL.

These data come from patent US6132976.
